The values below come from doi:10.1101/2024.07.05.601840v1.

Test in all cases: purified protein
Substrate in data set [1]: CCCCCCCC(=O)SCCNC(=O)CCNC(=O)[C@H](O)C(C)(C)COP(=O)(O)OP(=O)(O)OC[C@H]1O[C@@H](n2cnc3c(N)ncnc32)[C@H](O)[C@@H]1OP(=O)(O)O
To be noted: 1 mM FcPF6, pH 6.5 HEPES-KOH, 20 mM KCl, 65°C.

Substrate in data set [2]: NC(=O)C1=CN([C@@H]2O[C@H](COP(=O)(O)OP(=O)(O)OC[C@H]3O[C@@H](n4cnc5c(N)ncnc54)[C@H](O)[C@@H]3O)[C@@H](O)[C@H]2O)C=CC1
Substrate in data set [3]: C/C=C/C(=O)SCCNC(=O)CCNC(=O)[C@H](O)C(C)(C)COP(=O)(O)OP(=O)(O)OC[C@H]1O[C@@H](n2cnc3c(N)ncnc32)[C@H](O)[C@@H]1OP(=O)(O)O
Substrate in data set [4]: NC(=O)c1ccc[n+]([C@@H]2O[C@H](COP(=O)(O)OP(=O)(O)OC[C@H]3O[C@@H](n4cnc5c(N)ncnc54)[C@H](O)[C@@H]3O)[C@@H](O)[C@H]2O)c1
To be noted: 0.4 mM crotonyl-CoA, pH 7 TRIS-HCl, 75°C, varied: cofactor.

Substrate in data set [5]: C[C@H](O)CC(=O)SCCNC(=O)CCNC(=O)[C@H](O)C(C)(C)COP(=O)(O)OP(=O)(O)OC[C@H]1O[C@@H](n2cnc3c(N)ncnc32)[C@H](O)[C@@H]1OP(=O)(O)O
To be noted: oxidative direction with NAD+.

Substrate in data set [6]: CC(=O)CC(=O)SCCNC(=O)CCNC(=O)[C@H](O)C(C)(C)COP(=O)(O)OP(=O)(O)OC[C@H]1O[C@@H](n2cnc3c(N)ncnc32)[C@H](O)[C@@H]1OP(=O)(O)O
The note with it: 0.2 mM NADH, pH 7 TRIS-HCl, 35°C.

Substrate in data set [7]: CC(=O)CC(=O)SCCNC(=O)CCNC(=O)[C@H](O)C(C)(C)COP(=O)(O)OP(=O)(O)OC[C@H]1O[C@@H](n2cnc3c(N)ncnc32)[C@H](O)[C@@H]1OP(=O)(O)O
Format: biochemical, Sulfolobus acidocaldarius. The note with it: thiolytic cleavage, 0.2 mM CoA, 20 mM MgCl2, pH 8, 23°C.

Substrate in data set [8]: CC(C)(COP(=O)(O)OP(=O)(O)OC[C@H]1O[C@@H](n2cnc3c(N)ncnc32)[C@H](O)[C@@H]1OP(=O)(O)O)[C@@H](O)C(=O)NCCC(=O)NCCS
Type of data set: biochemical, Sulfolobus acidocaldarius. The note with it: thiolytic cleavage, 0.1 mM AcAcCoA, 20 mM MgCl2, pH 8, 23°C.

Substrate in data set [9]: C[C@@H](O)CC(=O)SCCNC(=O)CCNC(=O)[C@H](O)C(C)(C)COP(=O)(O)OP(=O)(O)OC[C@H]1O[C@@H](n2cnc3c(N)ncnc32)[C@H](O)[C@@H]1OP(=O)(O)O
The note with it: dehydration, pH 6.5 MES-KOH, 20 mM KCl, 65°C.

The mark [10] stands for this setting: 0.6 mM AcAcCoA, pH 7 TRIS-HCl, 35°C, varied: cofactor.
Setting [11] is: 0.2 mM NAD+, pH 7 TRIS-HCl, 75°C.
The mark [12] stands for this setting: 0.3 mM NADPH, pH 7.5 HEPES-NaOH, 10 mM KCl, 70°C.
[13] abbreviates: 0.2 mM INT, pH 7.5 HEPES-NaOH, 100 mM NaCl.
The mark [14] stands for this setting: hydration, pH 6.5 MES-KOH, 20 mM KCl, 65°C.

B1: ACAD (Saci_1123) (Sulfolobus acidocaldarius DSM 639) (protein)
chain: MVLPFKTMEAFNVEISEKHELFRRAVREFMERDVAPYVEKGEKEGQIPKEVLEKAKELGLYGVSVPEEYGGQGGDSLMTVIAQEEMARVWAALSTRVAVGGLFMTPILLFGSEEQRKKYVTPVAKGDKVAAFANTEPQAGSDVAGMQSTAKKVNGKYILNARKIFITNGGIADYYVVTARTSPPEPNARWKGISMFVVEREWKGVKVLNRIETMGLKASNTAELAFEDVEVPAENLVGEEGMGFKYAMSTFDASRVGVAGQALGVAQAALEKMTNYSVQRSAFGSPLLGFQMVQEKIAETLTEVNAARLVTYWAATLYNKGMTNEAIIASSMAKYFATEVAERAAIRAITVHGGYGVATSTGVERLLRDVEIMKIYEGANDIQKLVILKETARRLFGIKM
For B1, in the data set “purified protein [1]”, the Km (as a rule, the substrate concentration at which the rate is half of its maximum) came to 15.1 ± 4 µM and the kcat (as a rule, the maximal rate divided by the concentration of active sites) was 21.234 s⁻¹.

B2: HCDH/ECH (Saci_1109) (Sulfolobus acidocaldarius DSM 639) (protein)
chain: MKVEDIKKILVIGAGTMGHGIAELAAIAGYQVYLSDVSQDILNSAMDKVKWSLTKLKERGTIKEDVETVLQRIRPVVGLDKTVSDADFSIEAITEKIDVKRQTFAKLDELLPPHAILATNTSSLPVSKIAEATKRPDKVVGMHYFNPPALMPLVEVMKGDKTSDETAKVTYELAKKLGKQPIMINKDIPGYVVNRILGGINIASCIVVEKKLADIKEVDAVARYKLGFPMGVFELLDYTGIDVAYYISKSREELGVKDDIPICSLIVEKFKNNELGVKSGKGFYTYPGPGKYVKPELPKELAEKLNPALIIAPAVNEAARLVRENIASKEDVDLGTVLGLGFQKGILKLADEVGIDNIVNSLSELKKLTGISSFDPDPLLTEMVSQGKVGMKSGSGFFEYGKIQQKTLKTLILRVEPPLAWIVLNRPERLNALSQELMGELDKVLDELEFNNDVRVVIITGNGRAFSAGADVTSFTTLRPIDVVRYRYMKNVIYKIQLYTKPVIAAINGFALGGGLELAMACDIRIASNLAQLGQPEINIGIIPGAGGTQRLPRLIGKGRAKLLIYTGDMIPAEEAYKMGLVDQVVPANKFEEEVRRVALKIAEKSPLSLLAAKLAVELGYEANIWTGQELESALFGLLFTTEDVKEGVRAFLERRKPQFKGE
As to B2, the Km in the data set “purified protein [2]” (setting [10]) was 28 ± 7 µM; in “purified protein [3]” (setting [11]), 24 ± 4 µM; in “purified protein [4]”, 36 ± 9 µM; in “purified protein [5]” it was 43 ± 2 µM; in the data set “purified protein [6]”, 76 ± 8 µM. Besides, the catalytic constant (kcat) was 8.441 s⁻¹ in the data set “purified protein [2]” (setting [10]), 20.56 s⁻¹ in the data set “purified protein [3]” (setting [11]) and 58.672 s⁻¹ in the data set “purified protein [5]”.

B3: ECR (Saci_1115) (Sulfolobus acidocaldarius DSM 639) (protein)
chain: MKAVILPGFKQGYKIDKNVQEPKAGKSEVVVKLRKAALCYRDLLQIQGFYPRSKYPLILGHEMVGEIEEVGEGVEGFKKGDIVTSLLYVPDWTCDNCKMGEEIYCNNRQLYAQELDGFFAERILVKANSLVKVPPGVSDEGAVVVPCVAAMIYRGLKRANVKQGDIVLVTGAGGGVGIHALQVAKALGAKVVGVTSEESKAKIVGKFSDYVVVGNKFAEEVRKGFGEPSIVVDNVGGPTLDESMRSLKIGGKIVQVGNIDPSVNFSLRLGYLVLKNVELIGHAGATKKDIVDTLEMVRQNKITPVIGGEVSIEDFDKALDMLKDRKRHGKILIKP
For the protein B3, in “purified protein [3]” (setting [12]), the Km was 96 ± 18 µM and the catalytic constant (kcat) turned out to be 0.256 s⁻¹.

B4: KT/DUF35 (Saci_1121/1120 complex) (Sulfolobus acidocaldarius DSM 639) (protein)
chain: MRNVAIVGTGHSKFGVRNDVSMQELAWEAVKQALEEANLEQKDIQYFVVGNVGMWSAEELPAVVVGEYCDLTPKGTMRVEAACATGSAAIRDAYQAIKAGEIDVALVVGVEQMSQSPNPQVIELIGRAGNYFWEFENFGLTFPGYYALYASAYMAKYGMKEEDLGSVAVKNHYYGARNPYAQFQKEITMEEYLKSKPVAQPLKLLDSSPITDGAAALILASEEVARKITDSPVWIVSQGVASGTANLSRRTDFTGIEASYVAAKEAYKRAKIDFSDAWRYFDVADVHDCFTIAEIMAYEDLGFAKRGEGHLMARNGETYIGGKIPVNVDGGLKAKGHPIGATGVSMAVSITRQLLYRAHKGTQADIRNGMGITHNVGGTGHYAYITIYSTRRPSS
Take B4: in the data set “purified protein [7]”, the Km came to 65 ± 18.7 µM and the kcat was found to be 4.024 s⁻¹. In addition, in the data set “purified protein [8]”, the Km stood at 20 ± 4.1 µM and the kcat amounted to 3.467 s⁻¹.

B5: ETF (Saci_0315) (Sulfolobus acidocaldarius DSM 639) (protein)
chain: MAELKIVVSIKQVPDADDLRIDPVTNNLVREGVPAVINPPDYHAIEEAIRLKERFGGKTMVLTMGPGQAEVALREALAMGIDEAYLISDRAMAGADTWATSYTVAKAVQRLGGADIILFGRRAVDGETEQVGPQTGKWLGIPVVAYVREIRSIENGKAVVVRTTEFEEEVIEVPLPAVFTILETANKPRQPDILSLIKAKTAKVTVWNKDDIKAEPTKIGLAGSPTKVIKVSPPPKTRKPEIIDGKKDPEKAAEWFLNKIYESLKEAESSLKEYVKPKAKVKVNSEIWVYIDHIGDRINKASLEILSEARRIADLMDTSVAGVVIGGESVKGIINEVYEYGADKVYFAETKGYDRYDNEVYTKALAKLAKKYKPEGIFFPGTRAARELASTSAIEIDTGLIADCTNFDVDDKGVLLATRPDFGGKEMSTIVCPRHRPVMVTTRAGVFMPLPRMPGRTGELIKEEIEDLYSRLKVLEYKNIEKRNILTEADIVVGVGRGIKSPENIKKFEEFATALGGVLGVSKPLADMGWYPKDRQIGQTGTTIRPKVYIALGVSGAVQHLVGILSSRKIGAINLDQSAPIFDNCDFGVVGDIFEIVPKMMELIKKKGE
For B5, in “purified protein [2]” (setting [13]), the Km was 39 ± 12 µM and the kcat is 0.784 s⁻¹.

B6: KT (Saci_1114) (Sulfolobus acidocaldarius DSM 639) (protein)
chain: MLQEVYLVDFARTPFTRFTRKEPQKDPFYNLRPEELAGIVINRLIEKNGINPREIEEIVTGCALQVGEQWSFGGRHEVFASRLPYTIPSMAVDRQCASSITTVAIGAMEVATGMADIVLAGGVEKMSKTPMFDNPHIEPNMAFLTDPKYAEYDLTTGYVMGLTAERLAEEAKISREEMDRWSLRSHQMATKAIQEGYFKDEIIPFETEVEGKKITLTTDQSVRPDTSLEKLSQLPPAFRPNGTITAGNSAPLNSGSAYVLLMSKNALKRYGLTPMAKIRSFGFAGVPPAVMGKGPVPSSKKALEKANLNVKDISLWEINEAFAVVVLNAIKELGLDESTVNKRGGAIAIGHPLGATGARIVGTLARQLLIEGKDYGVATLCVGGGQGGAIVVERV
With B6, in “purified protein [7]”, the Km was 33 ± 10 µM and the kcat worked out at 1.2 s⁻¹. Besides, in the data set “purified protein [8]”, the Km was 3.38 µM and the kcat is 1.8 s⁻¹.

B7: MaoC-HCD (Saci_1085) (Sulfolobus acidocaldarius DSM 639) (protein)
chain: MSEQGPFFEDFKVGQRFRSKVGRSLTDVDNIWFTLLTNNSNQIHFNRDYTEKYFSGEPFKGRLVVNGFLTLAIVAGLLVELTSQNGFMLGIENVKFMNPVFAGDTIYGEAEVIEARESKSRPGFGIVKIRTWGYNQRGEKIVEFDRVFMVRKRNSVWSGEKSTDKPQ
In the case of B7, the Km in “purified protein [3]” (setting [14]) was determined as 222 ± 64 µM; in “purified protein [9]”, 399 ± 127 µM. The kcat in the data set “purified protein [3]” (setting [14]) came out at 1.404 s⁻¹; in “purified protein [9]” it was 0.549 s⁻¹.
